According to article PMC10084705:

Target: SARS-CoV-2 main protease M^pro-C145A (SARS-CoV-2)
Experiment: cryo-EM structure

Substance “SARS-CoV-2 main protease M^pro-C145A (enzyme)” has a stoichiometry N of 2.
